Measurements taken from paper PMC9666304, “Quinone binding site in a type VI sulfide:quinone oxidoreductase” (Applied Microbiology and Biotechnology, 2022).

T1: TrSqrF; SqrF WT (Thiocapsa roseopersicina, UniProt A0A1Z2RRG1)
T1 sequence (A0A1Z2RRG1 1-375): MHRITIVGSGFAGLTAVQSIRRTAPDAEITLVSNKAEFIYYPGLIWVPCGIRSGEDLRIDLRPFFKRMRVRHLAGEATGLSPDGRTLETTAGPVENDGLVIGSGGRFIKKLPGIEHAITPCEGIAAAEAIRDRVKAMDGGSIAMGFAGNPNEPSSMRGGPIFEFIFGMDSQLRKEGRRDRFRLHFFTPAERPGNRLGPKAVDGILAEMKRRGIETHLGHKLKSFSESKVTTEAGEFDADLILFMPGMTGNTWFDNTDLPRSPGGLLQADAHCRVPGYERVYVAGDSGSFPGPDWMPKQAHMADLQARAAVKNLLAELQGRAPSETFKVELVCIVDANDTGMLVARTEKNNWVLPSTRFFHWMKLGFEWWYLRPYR


Columns and labels:
[1] = target: T1, TrSqrF; SqrF WT; test: UV-visible absorption of purified protein; in-gel FAD fluorescence; assay type: binding; details: co-purified cofactor
[2] = substrate: CCCCCCCCCCC1=C(C)C(=O)C(OC)=C(OC)C1=O; test: purified protein; assay type: biochemical, Thiocapsa roseopersicina; details: 200 µM sulfide, 50 mM Tris-HCl pH 8.0, 25 °C, anaerobic
[3] = substrate: CC1=C(C)C(=O)C(C)=C(C)C1=O; test: purified protein; assay type: biochemical, Thiocapsa roseopersicina; details: 200 µM sulfide, 50 mM Tris-HCl pH 8.0, 25 °C, anaerobic

Molecule | UV-visible absorption of purified protein; in-gel FAD fluorescence [1] | Km [2] | kcat [2] | kcat/Km [2] | Km [3] | kcat [3] | kcat/Km [3]
Cc1cc2nc3c(=O)[nH]c(=O)nc-3n(C[C@H](O)[C@H](O)[C@H](O)COP(=O)(O)OP(=O)(O)OC[C@H]3O[C@@H](n4cnc5c(N)ncnc54)[C@H](O)[C@@H]3O)c2cc1C [FAD, flavin adenine dinucleotide] | Absorption maxima at these wavelengths indicated that all TrSqrF variants contained the FAD cofactor | – | – | – | – | – | –
SqrF CTD (Thiocapsa roseopersicina) (protein, C-terminal alpha-helix deletion, stop codons after Thr356; N-terminal StrepII tag, expressed in T. roseopersicina FOQRON) MHRITIVGSGFAGLTAVQSIRRTAPDAEITLVSNKAEFIYYPGLIWVPCGIRSGEDLRIDLRPFFKRMRVRHLAGEATGLSPDGRTLETTAGPVENDGLVIGSGGRFIKKLPGIEHAITPCEGIAAAEAIRDRVKAMDGGSIAMGFAGNPNEPSSMRGGPIFEFIFGMDSQLRKEGRRDRFRLHFFTPAERPGNRLGPKAVDGILAEMKRRGIETHLGHKLKSFSESKVTTEAGEFDADLILFMPGMTGNTWFDNTDLPRSPGGLLQADAHCRVPGYERVYVAGDSGSFPGPDWMPKQAHMADLQARAAVKNLLAELQGRAPSETFKVELVCIVDANDTGMLVARTEKNNWVLPST | – | 18.99 ± 0.67 µM | 4.9 ± 0.8 s⁻¹ | 268000 M⁻¹ s⁻¹ | 70.71 ± 44.78 µM | 0.96 ± 0.24 s⁻¹ | 14000 M⁻¹ s⁻¹
TrSqrF; SqrF WT (Thiocapsa roseopersicina) (protein) MHRITIVGSGFAGLTAVQSIRRTAPDAEITLVSNKAEFIYYPGLIWVPCGIRSGEDLRIDLRPFFKRMRVRHLAGEATGLSPDGRTLETTAGPVENDGLVIGSGGRFIKKLPGIEHAITPCEGIAAAEAIRDRVKAMDGGSIAMGFAGNPNEPSSMRGGPIFEFIFGMDSQLRKEGRRDRFRLHFFTPAERPGNRLGPKAVDGILAEMKRRGIETHLGHKLKSFSESKVTTEAGEFDADLILFMPGMTGNTWFDNTDLPRSPGGLLQADAHCRVPGYERVYVAGDSGSFPGPDWMPKQAHMADLQARAAVKNLLAELQGRAPSETFKVELVCIVDANDTGMLVARTEKNNWVLPSTRFFHWMKLGFEWWYLRPYR | – | 24.47 ± 6.42 µM | 8.37 ± 0.33 s⁻¹ | 342000 M⁻¹ s⁻¹ | 27.39 ± 2.47 µM | 1.25 ± 0.04 s⁻¹ | 46000 M⁻¹ s⁻¹
TrSqrF; SqrF WT (Thiocapsa roseopersicina; F366Y) (protein) MHRITIVGSGFAGLTAVQSIRRTAPDAEITLVSNKAEFIYYPGLIWVPCGIRSGEDLRIDLRPFFKRMRVRHLAGEATGLSPDGRTLETTAGPVENDGLVIGSGGRFIKKLPGIEHAITPCEGIAAAEAIRDRVKAMDGGSIAMGFAGNPNEPSSMRGGPIFEFIFGMDSQLRKEGRRDRFRLHFFTPAERPGNRLGPKAVDGILAEMKRRGIETHLGHKLKSFSESKVTTEAGEFDADLILFMPGMTGNTWFDNTDLPRSPGGLLQADAHCRVPGYERVYVAGDSGSFPGPDWMPKQAHMADLQARAAVKNLLAELQGRAPSETFKVELVCIVDANDTGMLVARTEKNNWVLPSTRFFHWMKLGYEWWYLRPYR | – | 10.03 ± 1.39 µM | 3.17 ± 0.82 s⁻¹ | 316000 M⁻¹ s⁻¹ | 79.30 ± 14.68 µM | 0.57 ± 0.08 s⁻¹ | 7000 M⁻¹ s⁻¹
TrSqrF; SqrF WT (Thiocapsa roseopersicina; V331F) (protein) MHRITIVGSGFAGLTAVQSIRRTAPDAEITLVSNKAEFIYYPGLIWVPCGIRSGEDLRIDLRPFFKRMRVRHLAGEATGLSPDGRTLETTAGPVENDGLVIGSGGRFIKKLPGIEHAITPCEGIAAAEAIRDRVKAMDGGSIAMGFAGNPNEPSSMRGGPIFEFIFGMDSQLRKEGRRDRFRLHFFTPAERPGNRLGPKAVDGILAEMKRRGIETHLGHKLKSFSESKVTTEAGEFDADLILFMPGMTGNTWFDNTDLPRSPGGLLQADAHCRVPGYERVYVAGDSGSFPGPDWMPKQAHMADLQARAAVKNLLAELQGRAPSETFKVELFCIVDANDTGMLVARTEKNNWVLPSTRFFHWMKLGFEWWYLRPYR | – | 12.33 ± 0.86 µM | 3.64 ± 1.06 s⁻¹ | 295000 M⁻¹ s⁻¹ | 40.23 ± 7.36 µM | 0.72 ± 0.02 s⁻¹ | 18000 M⁻¹ s⁻¹
TrSqrF; SqrF WT (Thiocapsa roseopersicina; V331A) (protein) MHRITIVGSGFAGLTAVQSIRRTAPDAEITLVSNKAEFIYYPGLIWVPCGIRSGEDLRIDLRPFFKRMRVRHLAGEATGLSPDGRTLETTAGPVENDGLVIGSGGRFIKKLPGIEHAITPCEGIAAAEAIRDRVKAMDGGSIAMGFAGNPNEPSSMRGGPIFEFIFGMDSQLRKEGRRDRFRLHFFTPAERPGNRLGPKAVDGILAEMKRRGIETHLGHKLKSFSESKVTTEAGEFDADLILFMPGMTGNTWFDNTDLPRSPGGLLQADAHCRVPGYERVYVAGDSGSFPGPDWMPKQAHMADLQARAAVKNLLAELQGRAPSETFKVELACIVDANDTGMLVARTEKNNWVLPSTRFFHWMKLGFEWWYLRPYR | – | 18.99 ± 6.10 µM | 2.47 ± 0.33 s⁻¹ | 130000 M⁻¹ s⁻¹ | – | – | –
TrSqrF; SqrF WT (Thiocapsa roseopersicina; F366A) (protein) MHRITIVGSGFAGLTAVQSIRRTAPDAEITLVSNKAEFIYYPGLIWVPCGIRSGEDLRIDLRPFFKRMRVRHLAGEATGLSPDGRTLETTAGPVENDGLVIGSGGRFIKKLPGIEHAITPCEGIAAAEAIRDRVKAMDGGSIAMGFAGNPNEPSSMRGGPIFEFIFGMDSQLRKEGRRDRFRLHFFTPAERPGNRLGPKAVDGILAEMKRRGIETHLGHKLKSFSESKVTTEAGEFDADLILFMPGMTGNTWFDNTDLPRSPGGLLQADAHCRVPGYERVYVAGDSGSFPGPDWMPKQAHMADLQARAAVKNLLAELQGRAPSETFKVELVCIVDANDTGMLVARTEKNNWVLPSTRFFHWMKLGAEWWYLRPYR | – | 9.38 ± 1.97 µM | 1.97 ± 0.28 s⁻¹ | 210000 M⁻¹ s⁻¹ | 46.19 ± 2.53 µM | 0.26 ± 0.01 s⁻¹ | 6000 M⁻¹ s⁻¹
TrSqrF; SqrF WT (Thiocapsa roseopersicina; I333F) (protein) MHRITIVGSGFAGLTAVQSIRRTAPDAEITLVSNKAEFIYYPGLIWVPCGIRSGEDLRIDLRPFFKRMRVRHLAGEATGLSPDGRTLETTAGPVENDGLVIGSGGRFIKKLPGIEHAITPCEGIAAAEAIRDRVKAMDGGSIAMGFAGNPNEPSSMRGGPIFEFIFGMDSQLRKEGRRDRFRLHFFTPAERPGNRLGPKAVDGILAEMKRRGIETHLGHKLKSFSESKVTTEAGEFDADLILFMPGMTGNTWFDNTDLPRSPGGLLQADAHCRVPGYERVYVAGDSGSFPGPDWMPKQAHMADLQARAAVKNLLAELQGRAPSETFKVELVCFVDANDTGMLVARTEKNNWVLPSTRFFHWMKLGFEWWYLRPYR | – | 13.98 ± 7.20 µM | 1.2 ± 0.48 s⁻¹ | 86000 M⁻¹ s⁻¹ | 102.7 ± 69.9 µM | 0.72 ± 0.21 s⁻¹ | 7000 M⁻¹ s⁻¹
